The subject of data set [1] is 35S::tetO-Renilla Luciferase reporter. The experiment in a line: Nicotiana benthamiana leaf infiltration assay, repression and derepression. To be noted: inducer concentration as low as 0.02 ppm Es. Format: in vivo.
Another data set relates to operator. Put plainly: Biacore SPR operator binding characterization of repressors. The text has this:
Select SU repressors were further characterized for operator and ligand binding, affinity and dissociation kinetics using Biacore™ SPR technology (Biacore, GE Healthcare, USA). The technology is based on surface plasmon resonance (SPR), an optical phenomenon that enables detection of unlabeled interactants in real time. The SPR-based biosensors can be used in determination of active concentration, screening and characterization in terms of both affinity and kinetics.
The kinetics of an interaction, i.e., the rates of complex formation (ka) and dissociation (kd), can be determined from the information in a sensorgram. If binding occurs as sample passes over a prepared sensor surface, the response in the sensorgram increases. If equilibrium is reached, a constant signal is seen. Replacing the sample with buffer causes the bound molecules to dissociate and the response decreases. Biacore evaluation software generates the values of ka and kd by fitting the data to interaction models.
The affinity of an interaction is determined from the level of binding at equilibrium (seen as a constant signal) as a function of sample concentration. Affinity can also be determined from kinetic measurements. For a simple 1:1 interaction, the equilibrium constant KD is the ratio of the kinetic rate constants, kd/ka.
A. Operator Binding Characterization of Repressors
(In general: In SPR one partner is held on a chip, and binding of the other changes the refractive index at the surface.)

Another data set relates to RLuc reporter. The experiment in a line: Agrobacterium transient luciferase assay of promoters with and without tet operators. Format: in vivo, Nicotiana benthamiana. To be noted: relative light units. As to the method:
The activity of unmodified and designed MMV, dMMV, and EF1A2 promoters were evaluated using the characterized 35SCaMV (SEQ ID NO:861) and 35SCaMV::tetOP (SEQ ID NO:862) promoters as controls. Promoter activity was analyzed via Agrobacterium-mediated transient expression analysis in Nicotiana benthamiana leaves. N. benthamiana leaves were infected with luciferase reporter constructs controlled by either the modified or unmodified promoters. Test constructs were identical except for the promoter sequence (Pro) being tested. Test constructs comprised the following operably linked components: • RB-Pro-RLuc-UBQ3-EF1A-NptII-EF1A3′-LB
Relative light units were quantified for modified and unmodified promoters (FIG. 3), and promoter activity for the modified version determined as the percent of unmodified promoter activity (ProOp/Pro). […] In this assay, 35S:tetOp had about 25% of the activity as 35S promoter, EF1A2:tetOp had about 30% of the activity of EF1A2 promoter, MMV:tetOp had about 60% of the activity of MMV promoter, and dMMV:tetOp had about 50% of the activity of dMMV promoter.

B1: L7-3E03-D1: ethametsulfuron repressor (EsR), SEQ ID NO:411 (protein)
chain: MARLDKSKVINSALELLNEVGIEGLTTRKLAQKLGVEQPTLYWHVKNKRALLDAMAIEMLDRHATHYCPLEGESWQDFLRNNAKSMRCALLSHRDGAKVCLGTGFTEQQYETAENSLAFLCQQGFSLEHAMYAMQAAGIYTLGCVLLDQELQVAKEERETPTTDSMPPLVRQALELKDHQGAEPAFLFGLELIICGLEKQLKCESGS
modifications: Sulfonylurea responsive repressor L7-3E3-D1
In the case of B1, the induction of repressor entry in data set [1] is “significant but incomplete induction”. This molecule returned a ka in the data set on operator of 55000 M⁻¹ s⁻¹.

B2: L7-1C03-A5: ethametsulfuron repressor (EsR), SEQ ID NO:408 (protein)
chain: MARLDKSKVINSALELLNEVGIEGLTTRKLAQKLGVEQPTLYWHVKNKRALLDAMAIEMLDRHATHVCPLEGESWQDFLRNNAKIMRCALLSHRDGAKVCLGTGFTEQQYETAENSLAFLCQQGFSLEHALYAMQAAGIFTLGCVLLDQELQVAKEERETPTTDSMPPLVRQALELNDHQGAEPAFLFGLELIICGLEKQLKCESGS
modifications: Sulfonylurea responsive repressor L7-1C3-A5
B2: the ka in the data set on operator came out at 47000 M⁻¹ s⁻¹.

B3: L7-1G06-B2: ethametsulfuron repressor (EsR), SEQ ID NO:410 (protein)
chain: MARLDKSKVINSALELLNEVGIEGLTTRKLAQKLGVEQPTLYWHVKNKRALLDAMAIEMLDRHATHYCPLEGESWQDFLRNNAKSMRCALLSHRDGAKVCLGTGFTEQQYETAENSMAFLCQQGFSLENALYAMQAVGIYTLGCVLLDQELQVAKEERETPTTDSMPPLVRQALELKDHQGAEPAFLFGLELIICGLEKQLKCESGS
modifications: Sulfonylurea responsive repressor L7-1G6-B2
Take B3: the ka in the data set on operator worked out at 46000 M⁻¹ s⁻¹.

B4: L7-1F08-A11: ethametsulfuron repressor protein, SEQ ID NO:409 (protein)
chain: MARLDKSKVINSALELLNEVGIEGLTTRKLAQKLGVEQPTLYWHVKNKRALLDAMAIEMLDRHATHYCPLEGESWQDFLRNNAKSMRCALLSHRDGAKVCLGTGFTEQQYETAENSLAFLCQQGFSLENALYAMQAVGIYTLGCVLLDQELQVAKEERETPTTDSMPPLVRQALELKDHQGAEPAFLFGLELIICGLEKQLKCESGS
modifications: Sulfonylurea responsive repressor L7-1F8-A11
In the data set with operator, B4 had a ka of 71000 M⁻¹ s⁻¹.

B5: 35S:tetOp: 35SCaMV promoter with tet operators, SEQ ID NO:862, control (nucleic acid)
DNA: GAAAATCTTCGTCAACATGGTGGAGCACGACACGCTTGTCTACTCCAAAAATATCAAAGATACAGTCTCAGAAGACCAAAGGGCAATTGAGACTTTTCAACAAAGGGTAATATCCGGAAACCTCCTCGGATTCCATTGCCCAGCTATCTGTCACTTTATTGTGAAGATAGTGGAAAAGGAAGGTGGCTCCTACAAATGCCATCATTGCGATAAAGGAAAGGCCATCGTTGAAGATGCCTCTGCCGACAGTGGTCCCAAAGATGGACCCCCACCCACGAGGAGCATCGTGGAAAAAGAAGACGTTCCAACCACGTCTTCAAAGCAAGTGGATTGATGTGATATCTCCACTGACGTAAGGGATGACGCACAATCCCACTAGACTCTATCAGTGATAGAGTGTATATAAGACTCTATCAGTGATAGAGTGAACTCTATCAGTGATAGAGTTGTACTTATTTTTACAACAATTACCAACAACAACAAACAACAAACAACATTACAATTACTATTTACAATTACAGTCGACGGATCAAGTGCAAAGGTCCGCCTTGTTTCTCCTCTGTCTCTTGATCTGACTAATCTTGGTTTATGATTCGTTGAGTAATTTTGGGGAAAGCTTCGTCCACAGTTTTTTTTTCGATGAACAGTGCCGCAGTGGCGCTGATCTTGTATGCTATCCTGCAATCGTGGTGAACTTATTTCTTTTATATCCTTCACTCCCATGAAAAGGCTAGTAATCTTTCTCGATGTAACATCGTCCAGCACTGCTATTACCGTGTGGTCCATCCGACAGTCTGGCTGAACACATCATACGATATTGAGCAAAGATCGATCTATCTTCCCTGTTCTTTAATGAAAGACGTCATTTTCATCAGTATGATCTAAGAATGTTGCAACTTGCAAGGAGGCGTTTCTTTCTTTGAATTTAACTAACTCGTTGAGTGGCCCTGTTTCTCGGACGTAAGGCCTTTGCTGCTCCACACATGTCCATTCGAATTTTACCGTGTTTAGCAAGGGCGAAAAGTTTGCATCTTGATGATTTAGCTTGACTATGCGATTGCTTTCCTGGACCCGTGCAGCTGCGGACGGATCC
modifications: 35SCaMV promoter engineered with tet operators
On to B5, for which the “promoter activity as percent of unmodified promoter activity (ProOp/Pro)” value (“promoter activity as percent … (ProOp/Pro)” below) in the data set with RLuc reporter was “about 25%”.

B6: MMV:tetOp: Mirabilis mosaic virus promoter with three tet operators, SEQ ID NO:857 (nucleic acid)
DNA: TTCGTCCACAGACATCAACATCTTATCGTCCTTTGAAGATAAGATAATAATGTTGAAGATAAGAGTGGGAGCCACCACTAAAACATTGCTTTGTCAAAAGCTAAAAAAGATGATGCCCGACAGCCACTTGTGTGAAGCATGAGAAGCCGGTCCCTCCACTAAGAAAATTAGTGAAGCATCTTCCAGTGGTCCCTCCACTCACAGCTCAATCAGTGAGCAACAGGACGAAGGAAATGACGTAAGCCATGACGTCTAATCCCACACTCTATCAGTGATAGAGTTTATATAAGACTCTATCAGTGATAGAGTGAACTCTATCAGTGATAGAGTGAGATCAATCGAAATCAAAATCGGAATCGAAATCAAAATCGGAATCGAAATCTCTCATCTAAGAGCTCAAAAAAAAAAAAAACC
modifications: MMV promoter engineered with tet operators
Regarding B6, in the data set on RLuc reporter, the “promoter activity as percent … (ProOp/Pro)” value is on record as “about 60%”.

B7: dMMV:tetOp: double enhancer MMV promoter with three tet operators, SEQ ID NO:858 (nucleic acid)
DNA: AAACCAATTCGTCAACTTCGTCCACAGACATCAACATCTTATCGTCCTTTGAAGATAAGATAATAATGTTGAAGATAAGAGTGGGAGCCCCCACTAAAACATTGCTTTGTCAAAAGCTAAAAAAGATGATGCCCGACAGCCACTTGTGTGAAGCATGAGAAGCCGGTCCCTCCACTAAGAAAATTAGTGAAGCATCTTCCAGTGGTCCCTCCACTCACAGCTCAATCAGTGAGCAACAGGACGAAGGAAATGACGTAAGCCATGACGTCTAATCCCAACTTCGTCCACAGACATCAACATCTTATCGTCCTTTGAAGATAAGATAATAATGTTGAAGATAAGAGTGGGAGCCACCACTAAAACATTGCTTTGTCAAAAGCTAAAAAAGATGATGCCCGACAGCCACTTGTGTGAAGCATGAGAAGCCGGTCCCTCCACTAAGAAAATTAGTGAAGCATCTTCCAGTGGTCCCTCCACTCACAGCTCAATCAGTGAGCAACAGGACGAAGGAAATGACGTAAGCCATGACGTCTAATCCCACACTCTATCAGTGATAGAGTTTATATAAGACTCTATCAGTGATAGAGTGAACTCTATCAGTGATAGAGTGAGATCAATCGAAATCAAAATCGGAATCGAAATCAAAATCGGAATCGAAATCTCTCATCTAAGAGCTCAAAAAAAAAAAAAACC
modifications: dMMV promoter engineered with tet operators
For the molecule B7, the “promoter activity as percent … (ProOp/Pro)” value with RLuc reporter is “about 50%”.

Values taken from patent US20110287936A1, “GENE SWITCH COMPOSITIONS AND METHODS OF USE” (priority 2010, published 2011).
